To fix the notation:
B1: TIPIN (natural protein, human)
chain: MLEPQENGVIDLPDYEHVEDETFPPFPPPASPERQDGEGTEPDEESGNGAPVRVPPKRTVKRNIPKLDAQRLISERGLPALRHVFDKAKFKGKGHEAEDLKMLIRHMEHWAHRLFPKLQFEDFIDRVEYLGSKKEVQTCLKRIRLDLPILHEDFVSNNDEVAENNEHDVTSTELDPFLTNLSESEMFASELSRSLTEEQQQRIERNKQLALERRQAKLLSNSQTLGNDMLMNTPRAHTVEEVNTDEDQKEESNGLNEDILDNPCNDAIANTLNEEETLLDQSFKNVQQQLDATSRNITEAR
notes: TIPIN, human; Stood in the structure as a subunit of m3; residues 62-147 modelled
B2: PSF1 (natural protein, human)
chain: MFCEKAMELIRELHRAPEGQLPAFNEDGLRQVLEEMKALYEQNQSDVNEAKSGGRSDLIPTIKFRHCSLLRNRRCTVAYLYDRLLRIRALRWEYGSVLPNALRFHMAAEEMEWFNNYKRSLATYMRSLGGDEGLDITQDMKPPKSLYIEVRCLKDYGEFEVDDGTSVLLKKNSQHFLPRWKCEQLIRQGVLEHILS
notes: PSF1 (GINS subunit), human; Stood in the structure as a subunit of m1; also called GINS subunit PSF1; source: Hi5 insect cells, purified as a subunit of hsCMG
B3: POLE2 (natural protein, human)
chain: MAPERLRSRALSAFKLRGLLLRGEAIKYLTEALQSISELELEDKLEKIINAVEKQPLSSNMIERSVVEAAVQECSQSVDETIEHVFNIIGAFDIPRFVYNSERKKFLPLLMTNHPAPNLFGTPRDKAEMFRERYTILHQRTHRHELFTPPVIGSHPDESGSKFQLKTIETLLGSTTKIGDAIVLGMITQLKEGKFFLEDPTGTVQLDLSKAQFHSGLYTEACFVLAEGWFEDQVFHVNAFGFPPTEPSSTTRAYYGNINFFGGPSNTSVKTSAKLKQLEEENKDAMFVFLSDVWLDQVEVLEKLRIMFAGYSPAPPTCFILCGNFSSAPYGKNQVQALKDSLKTLADIICEYPDIHQSSRFVFVPGPEDPGFGSILPRPPLAESITNEFRQRVPFSVFTTNPCRIQYCTQEITVFREDLVNKMCRNCVRFPSSNLAIPNHFVKTILSQGHLTPLPLYVCPVYWAYDYALRVYPVPDLLVIADKYDPFTTTNTECLCINPGSFPRSGFSFKVFYPSNKTVEDSKLQGF
notes: POLE2, human; Stood in the structure as a subunit of m2; residues 1-527 modelled; source: Hi5 insect cells, purified as a subunit of Pol ε
B4: AND‐1 (natural protein, human)
chain: MPATRKPMRYGHTEGHTEVCFDDSGSFIVTCGSDGDVRIWEDLDDDDPKFINVGEKAYSCALKSGKLVTAVSNNTIQVHTFPEGVPDGILTRFTTNANHVVFNGDGTKIAAGSSDFLVKIVDVMDSSQQKTFRGHDAPVLSLSFDPKDIFLASASCDGSVRVWQISDQTCAISWPLLQKCNDVINAKSICRLAWQPKSGKLLAIPVEKSVKLYRRESWSHQFDLSDNFISQTLNIVTWSPCGQYLAAGSINGLIIVWNVETKDCMERVKHEKGYAICGLAWHPTCGRISYTDAEGNLGLLENVCDPSGKTSSSKVSSRVEKDYNDLFDGDDMSNAGDFLNDNAVEIPSFSKGIINDDEDDEDLMMASGRPRQRSHILEDDENSVDISMLKTGSSLLKEEEEDGQEGSIHNLPLVTSQRPFYDGPMPTPRQKPFQSGSTPLHLTHRFMVWNSIGIIRCYNDEQDNAIDVEFHDTSIHHATHLSNTLNYTIADLSHEAILLACESTDELASKLHCLHFSSWDSSKEWIIDLPQNEDIEAICLGQGWAAAATSALLLRLFTIGGVQKEVFSLAGPVVSMAGHGEQLFIVYHRGTGFDGDQCLGVQLLELGKKKKQILHGDPLPLTRKSYLAWIGFSAEGTPCYVDSEGIVRMLNRGLGNTWTPICNTREHCKGKSDHYWVVGIHENPQQLRCIPCKGSRFPPTLPRPAVAILSFKLPYCQIATEKGQMEEQFWRSVIFHNHLDYLAKNGYEYEESTKNQATKEQQELLMKMLALSCKLEREFRCVELADLMTQNAVNLAIKYASRSRKLILAQKLSELAVEKAAELTATQVEEEEEEEDFRKKLNAGYSNTATEWSQPRFRNQVEEDAEDSGEADDEEKPEIHKPGQNSFSKSTNSSDVSAKSGAVTFSSQGRVNPFKVSASSKEPAMSMNSARSTNILDNMGKSSKKSTALSRTTNNEKSPIIKPLIPKPKPKQASAASYFQKRNSQTNKTEEVKEENLKNVLSETPAICPPQNTENQRPKTGFQMWLEENRSNILSDNPDFSDEADIIKEGMIRFRVLSTEERKVWANKAKGETASEGTEAKKRKRVVDESDETENQEEKAKENLNLSKKQKPLDFSTNQKLSAFAFKQE
notes: AND-1, human; Only the trimer of SepB domains is ordered in the map; source: Hi5 insect cells (baculovirus), purified (Flag M2, MonoQ, Superdex 200)

Data set [1] addresses T1, TIMELESS (human, UniProt Q9UNS1 1-1208).
T1 construct: Stood in the structure as a subunit of m3; residues 7-803 modelled (527-684 not visualised)
T1 sequence: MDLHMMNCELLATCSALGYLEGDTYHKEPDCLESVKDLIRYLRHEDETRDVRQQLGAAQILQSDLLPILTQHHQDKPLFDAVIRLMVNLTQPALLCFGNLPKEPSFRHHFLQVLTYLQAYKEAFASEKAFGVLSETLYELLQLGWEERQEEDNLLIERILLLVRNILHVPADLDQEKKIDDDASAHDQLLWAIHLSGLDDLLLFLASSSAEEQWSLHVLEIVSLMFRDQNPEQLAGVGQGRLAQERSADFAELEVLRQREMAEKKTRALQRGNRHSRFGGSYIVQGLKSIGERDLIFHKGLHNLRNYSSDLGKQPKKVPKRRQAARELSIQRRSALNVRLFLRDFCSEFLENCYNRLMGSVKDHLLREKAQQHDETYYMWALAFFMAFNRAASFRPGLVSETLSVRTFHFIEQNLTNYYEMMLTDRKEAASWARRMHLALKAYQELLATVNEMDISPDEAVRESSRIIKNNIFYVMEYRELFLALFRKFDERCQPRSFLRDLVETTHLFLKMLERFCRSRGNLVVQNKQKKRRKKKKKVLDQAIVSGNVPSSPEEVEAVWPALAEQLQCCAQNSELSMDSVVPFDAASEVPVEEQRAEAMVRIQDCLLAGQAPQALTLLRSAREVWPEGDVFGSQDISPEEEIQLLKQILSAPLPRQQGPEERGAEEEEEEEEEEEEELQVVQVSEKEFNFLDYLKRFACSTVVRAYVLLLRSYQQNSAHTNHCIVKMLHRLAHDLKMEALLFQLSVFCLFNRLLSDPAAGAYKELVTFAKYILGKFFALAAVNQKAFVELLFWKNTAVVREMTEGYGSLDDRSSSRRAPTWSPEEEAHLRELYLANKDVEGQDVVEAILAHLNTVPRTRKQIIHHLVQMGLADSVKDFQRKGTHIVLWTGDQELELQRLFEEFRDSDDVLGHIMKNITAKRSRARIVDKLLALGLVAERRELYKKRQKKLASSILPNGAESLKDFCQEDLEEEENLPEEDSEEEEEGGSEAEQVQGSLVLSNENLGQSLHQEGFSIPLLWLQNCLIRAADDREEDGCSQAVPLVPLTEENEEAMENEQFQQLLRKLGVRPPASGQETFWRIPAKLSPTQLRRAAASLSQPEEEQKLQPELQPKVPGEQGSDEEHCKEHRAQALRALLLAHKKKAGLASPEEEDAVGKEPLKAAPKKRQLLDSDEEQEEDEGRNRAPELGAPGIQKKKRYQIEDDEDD
As to the kind of experiment: cryo-EM structure; replisome reconstituted on fork DNA with AMP-PNP, isolated on a glycerol gradient with glutaraldehyde and BS3; 3.2 Å overall; a sample without CLASPIN solved at 3.4 Å. As to conditions: both partners purified.

The target of data set [2] is T2, MCM7 (human, UniProt P33993 1-719).
T2 construct: MCM7, human; Stood in the structure as a subunit of m1; source: Hi5 insect cells, purified as a subunit of hsCMG
T2 sequence (P33993 whole entry): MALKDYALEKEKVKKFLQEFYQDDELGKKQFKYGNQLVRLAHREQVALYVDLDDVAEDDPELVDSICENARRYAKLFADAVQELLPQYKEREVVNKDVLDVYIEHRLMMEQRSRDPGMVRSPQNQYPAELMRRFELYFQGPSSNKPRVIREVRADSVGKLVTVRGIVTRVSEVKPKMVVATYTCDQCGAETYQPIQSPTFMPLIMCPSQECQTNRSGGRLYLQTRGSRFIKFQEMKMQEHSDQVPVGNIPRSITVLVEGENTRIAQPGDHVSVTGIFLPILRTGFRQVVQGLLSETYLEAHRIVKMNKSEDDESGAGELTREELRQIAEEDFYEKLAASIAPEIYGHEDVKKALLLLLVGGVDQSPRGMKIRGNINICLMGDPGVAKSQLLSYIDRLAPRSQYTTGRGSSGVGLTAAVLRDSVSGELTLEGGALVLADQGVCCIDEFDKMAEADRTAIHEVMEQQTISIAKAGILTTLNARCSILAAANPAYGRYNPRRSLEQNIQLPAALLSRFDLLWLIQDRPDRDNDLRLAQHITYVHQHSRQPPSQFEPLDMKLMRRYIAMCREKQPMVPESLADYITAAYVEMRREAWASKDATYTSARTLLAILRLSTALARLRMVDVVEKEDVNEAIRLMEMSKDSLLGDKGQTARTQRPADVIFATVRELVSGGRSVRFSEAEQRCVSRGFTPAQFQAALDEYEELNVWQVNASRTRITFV
Described as above. As to conditions: both partners purified.

Data set [3] addresses B3. The description is as above. The following applies: both partners purified.
Data set [4] concerns the target T3, MCM5 (human, UniProt P33992 1-734).
T3 construct: MCM5, human; Stood in the structure as a subunit of m1; source: Hi5 insect cells, purified as a subunit of hsCMG
T3 sequence: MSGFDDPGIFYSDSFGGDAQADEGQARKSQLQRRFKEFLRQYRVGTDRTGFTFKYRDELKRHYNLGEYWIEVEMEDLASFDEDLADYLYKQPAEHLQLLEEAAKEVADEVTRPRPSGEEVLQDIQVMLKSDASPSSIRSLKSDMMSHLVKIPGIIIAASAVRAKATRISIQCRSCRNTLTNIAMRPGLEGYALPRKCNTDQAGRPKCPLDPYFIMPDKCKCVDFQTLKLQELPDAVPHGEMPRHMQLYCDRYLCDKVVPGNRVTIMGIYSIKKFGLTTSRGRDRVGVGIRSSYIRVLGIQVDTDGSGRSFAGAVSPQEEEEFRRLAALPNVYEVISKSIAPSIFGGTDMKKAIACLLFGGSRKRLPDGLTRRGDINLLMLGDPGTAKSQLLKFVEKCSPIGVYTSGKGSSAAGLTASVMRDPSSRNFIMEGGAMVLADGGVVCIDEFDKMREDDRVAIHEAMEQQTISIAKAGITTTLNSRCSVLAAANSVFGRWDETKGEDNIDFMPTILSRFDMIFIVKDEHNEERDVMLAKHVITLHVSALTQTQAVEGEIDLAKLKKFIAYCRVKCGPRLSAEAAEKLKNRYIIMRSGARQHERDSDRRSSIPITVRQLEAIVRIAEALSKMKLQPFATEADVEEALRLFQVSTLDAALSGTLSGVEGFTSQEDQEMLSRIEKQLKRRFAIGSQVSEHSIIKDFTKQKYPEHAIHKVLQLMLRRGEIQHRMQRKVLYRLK
Described as above. The following applies: both partners purified.

Data set [5] deals with T4, human CDC45‐MCM‐GINS (CMG) helicase (human, UniProt P49736 1-904; P25205 1-808; P33991 1-863; P33992 1-734; Q14566 1-821; P33993 …).
T4 construct: MCM2, human; MCM3, human; the construct lacks the 45 additional N-terminal amino acids of the longer isoform used in PDB 6XTX; MCM4, human; MCM5, human; MCM6, human; MCM7, human; CDC45, human; PSF1 (GINS subunit), human; PSF2 (GINS subunit), human; PSF3 (GINS subunit), human; SLD5 (GINS subunit), human; also called hsCMG; source: Hi5 insect cells co-infected with baculoviruses for MCM2-7, GINS …
As to the kind of experiment: co-sedimentation; native glycerol gradient without cross-linker (40 mM HEPES-NaOH pH 7.5, 150 mM NaOAc, 0.5 mM TCEP, 500 µM AMP-PNP, 3 mM Mg(OAc)2), 200,000 g, 4°C, 2 h; 100 nM CMG pre-incubated with fork DNA, 1.5-fold molar excess of the other proteins; fractions on silver-stained SDS-PAGE. As to conditions: both partners purified.

Data set [6] deals with the molecule itself. The experiment in a line: cryo-EM structure; replisome reconstituted on fork DNA with AMP-PNP, isolated on a glycerol gradient with glutaraldehyde and BS3; 3.2 Å overall; a sample without CLASPIN solved at 3.4 Å.

For the molecule B1, the binding result in data set [1] and in data set [2] was “binds” throughout.

For B2, in data set [3], the binding result is on record as “binds”.

Turning to B3, the binding result in data set [4] is recorded as “binds”.

Usually stoichiometry N stands for the number of molecules, sites or subunits per partner or assembly. Regarding B4, in data set [5], the binding result is given as “binds”. In data set [6], the “stoichiometry N” value came to 3.
